The values below come from patent publication US20250313631A1 (HUMMINGBIRD BIOSCIENCE PTE, published 2025).

Assay [1] has as its target T1, recombinant mouse VISTA (His-tagged) (mouse, UniProt Q9D659 33-191).
T1 construct: also called murine VISTA; mVISTA
T1 sequence (looked up): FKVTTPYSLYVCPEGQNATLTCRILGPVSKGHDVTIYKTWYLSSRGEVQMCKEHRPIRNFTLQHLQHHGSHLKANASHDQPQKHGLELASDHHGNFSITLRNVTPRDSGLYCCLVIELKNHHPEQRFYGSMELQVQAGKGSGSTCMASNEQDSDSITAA
The experiment in a line: BLI (Octet), 1:1 global fit, His-tagged mouse VISTA captured. In general terms: In BLI a coated tip is dipped into the sample, and binding shifts an interference pattern.
Description: All measurements were performed at 25° C. with agitation at 1000 rpm. […] Sensograms were referenced for buffer effects and then fitted using the Octet QK384 user software (Pall ForteBio, USA).

The target in assay [2] is T2, recombinant human VISTA (His-tagged) (human, UniProt Q9H7M9 33-194).
T2 construct: bought soluble protein (Sino Biological); also called hVISTA; human VISTA polypeptide
The experiment in a line: ELISA, plate coated with human VISTA. On the technique in general: In an ELISA, binding on a coated surface is turned into a signal by an enzyme label.

The target in assay [3] is T2, recombinant human VISTA (His-tagged). The experiment in a line: ELISA, plate coated with human B7H5 (VISTA), antibody titrated.
Description: (§1) 384-well plates were coated with 1 μg/ml of target antigen diluted in PBS for 16 hrs at 4° C. […] After washing, plates were developed with colorimetric detection substrate 3,3′,5,5′-tetramethylbenzidine (Turbo-TMB; Pierce) for 10 min.
Assay [4] shares this target. The experiment in a line: antigen-binding ELISA; HMBD-002 in F7, day 30 at 40°C.
The target is the same in assay [5]. As to the kind of experiment: ELISA on coated human VISTA, antibody diluted in buffer of pH 7.5.
Description: as §1
For assay [6] the target is unchanged. As to the kind of experiment: antigen-binding ELISA; reference standard run with the day 0 samples; reference standard, run with the Day 0 samples.
The target is the same in assay [7]. The experiment in a line: antigen-binding ELISA; HMBD-002 in F7, day 10 at 40°C.
Assay [8] has the same target. The experiment in a line: antigen-binding ELISA; reference standard run with the day 30 samples.
Assay [9] shares this target. As to the kind of experiment: antigen-binding ELISA, day 30 at 40°C.
The target is the same in assay [10]. The experiment in a line: antigen-binding ELISA; HMBD-002 in F2, day 30 at 40°C.
Assay [11] shares this target. The experiment in a line: ELISA, plate coated with human VISTA. This is another data set of the same source.
For assay [12], the target named is human CTLA4 (human, UniProt P16410 36-162). The experiment in a line: ELISA, plate coated with the antigen.
Chain of human CTLA4 (P16410 36-162 limits assumed): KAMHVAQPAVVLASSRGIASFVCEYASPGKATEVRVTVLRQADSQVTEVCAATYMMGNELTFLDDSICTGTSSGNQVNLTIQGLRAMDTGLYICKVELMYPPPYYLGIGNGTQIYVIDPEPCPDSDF
The target of assay [13] is T3, human B7H4 (human, UniProt Q7Z7D3 25-258, limits assumed).
T3 construct: also called VTCN1
T3 sequence (looked up): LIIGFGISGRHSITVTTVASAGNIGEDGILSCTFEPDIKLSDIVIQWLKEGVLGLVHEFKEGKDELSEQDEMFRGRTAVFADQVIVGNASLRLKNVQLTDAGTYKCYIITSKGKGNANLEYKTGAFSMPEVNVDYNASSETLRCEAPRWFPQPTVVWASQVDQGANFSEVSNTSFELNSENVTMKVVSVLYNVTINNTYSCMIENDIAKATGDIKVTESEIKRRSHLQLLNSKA
As to the kind of experiment: ELISA, plate coated with the antigen.

Assay [14] addresses T4, human B7H3 (human, UniProt Q5ZPR3 29-461, limits assumed).
T4 construct: also called CD276
T4 sequence (looked up): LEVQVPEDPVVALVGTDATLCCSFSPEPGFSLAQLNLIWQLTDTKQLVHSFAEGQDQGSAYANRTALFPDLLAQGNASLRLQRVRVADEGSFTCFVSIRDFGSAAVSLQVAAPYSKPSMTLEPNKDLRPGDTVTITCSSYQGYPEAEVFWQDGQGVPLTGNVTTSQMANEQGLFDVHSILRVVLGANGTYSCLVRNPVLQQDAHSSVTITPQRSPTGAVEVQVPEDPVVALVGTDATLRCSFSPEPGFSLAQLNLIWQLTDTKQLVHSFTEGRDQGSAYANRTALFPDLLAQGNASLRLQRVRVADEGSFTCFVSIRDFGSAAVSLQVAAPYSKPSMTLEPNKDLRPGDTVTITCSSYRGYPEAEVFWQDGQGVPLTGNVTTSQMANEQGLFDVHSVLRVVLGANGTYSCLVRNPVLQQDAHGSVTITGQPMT
The experiment in a line: ELISA, plate coated with the antigen.

The target in assay [15] is T5, human B7H6 (human, UniProt Q68D85 25-262).
T5 construct: also called NCR3LG1
T5 sequence (looked up): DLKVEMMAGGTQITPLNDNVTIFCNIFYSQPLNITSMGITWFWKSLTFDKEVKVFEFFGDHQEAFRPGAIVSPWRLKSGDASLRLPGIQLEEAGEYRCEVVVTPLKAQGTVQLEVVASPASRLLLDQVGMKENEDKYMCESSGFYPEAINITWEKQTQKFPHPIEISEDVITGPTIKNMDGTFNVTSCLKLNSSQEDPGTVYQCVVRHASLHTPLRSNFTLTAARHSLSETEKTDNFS
As to the kind of experiment: ELISA, plate coated with the antigen.

The target in assay [16] is T6, human B7H7 (human, UniProt Q9UM44 23-344).
T6 construct: also called HHLA2
T6 sequence (looked up): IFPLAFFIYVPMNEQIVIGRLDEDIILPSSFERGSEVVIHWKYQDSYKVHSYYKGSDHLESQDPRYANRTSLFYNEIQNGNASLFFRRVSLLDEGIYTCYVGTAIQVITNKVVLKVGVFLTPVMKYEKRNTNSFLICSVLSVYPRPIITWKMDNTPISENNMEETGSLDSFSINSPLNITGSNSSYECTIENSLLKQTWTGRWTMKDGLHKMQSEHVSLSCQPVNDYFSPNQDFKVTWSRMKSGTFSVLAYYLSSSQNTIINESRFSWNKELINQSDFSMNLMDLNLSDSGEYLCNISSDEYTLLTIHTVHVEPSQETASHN
As to the kind of experiment: ELISA, plate coated with the antigen.

The target of assay [17] is human PD-1 (human, UniProt Q15116 25-167). As to the kind of experiment: ELISA, plate coated with the antigen.
Chain of human PD-1 (Q15116 25-167 limits assumed): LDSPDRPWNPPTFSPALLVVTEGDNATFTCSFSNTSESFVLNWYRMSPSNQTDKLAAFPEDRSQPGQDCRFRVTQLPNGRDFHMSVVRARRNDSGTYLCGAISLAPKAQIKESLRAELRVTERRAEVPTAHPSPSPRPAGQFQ

B1: anti-VISTA clone 4M2-C12 IgG1 (antibody)
heavy: not shown
light: DIVITQTPAILSTSPGEKVTMTCRASSSVGYIHWYQQKPGSSPKPWIYATSNLASGVPARFSGSGSGTSNSLTITRVEAEDAATYYCQQWSSYPPITFGGGTKLEVKRTVAAPSVFIFPPSDEQLKSGTASVVCLLNNFYPREAKVQWKVDNALQSGNSQESVTEQDSKDSTYSLSSTLTLSKADYEKHKVYACEVTHQGLSSPVTKSFNRGEC
notes: mouse variable regions on human IgG1/kappa constant regions; also called V4; V4pr
By Kd is commonly meant a measure of binding affinity in units of concentration. Broadly, the koff is a measure of how fast the partners let go of each other. What is called kon is a measure of how fast the partners come together. The EC50 (read off the curve) is the concentration giving half of the maximal effect. For B1, in assay [1], the Kd amounted to 108 nM, the koff worked out at 0.00656 s⁻¹ and the on-rate constant (kon) turned out to be 60900 M⁻¹ s⁻¹. In [2], the concentration for a half-maximal effect (EC50 (read off the curve)) was approximately 10 pM.

B2: V4-C26 hIgG4 (antibody)
heavy: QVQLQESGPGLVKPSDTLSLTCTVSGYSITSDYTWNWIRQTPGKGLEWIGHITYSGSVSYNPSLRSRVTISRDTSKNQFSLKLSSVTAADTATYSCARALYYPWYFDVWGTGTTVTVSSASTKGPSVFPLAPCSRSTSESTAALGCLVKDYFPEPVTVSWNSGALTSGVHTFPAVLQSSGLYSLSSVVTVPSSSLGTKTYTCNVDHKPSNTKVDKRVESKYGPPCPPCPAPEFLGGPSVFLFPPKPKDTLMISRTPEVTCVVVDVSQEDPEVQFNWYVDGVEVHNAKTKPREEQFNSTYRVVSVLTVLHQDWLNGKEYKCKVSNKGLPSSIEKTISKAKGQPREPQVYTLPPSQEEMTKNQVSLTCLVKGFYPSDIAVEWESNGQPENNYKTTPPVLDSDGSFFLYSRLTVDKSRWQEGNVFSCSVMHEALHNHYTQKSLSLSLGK
light: EIVLTQSPATLSLSPGERATLSCRASSSVGYIHWYQQKPGQAPRPIIYTTSNRATGIPARFSGSGSGTDNTLTISSLEPEDSAVYYCQQWSSYPPITFGGGTKLEVKRTVAAPSVFIFPPSDEQLKSGTASVVCLLNNFYPREAKVQWKVDNALQSGNSQESVTEQDSKDSTYSLSSTLTLSKADYEKHKVYACEVTHQGLSSPVTKSFNRGEC
notes: human IgG4 (S228P)/kappa format; also called HMBD-002; HMBD-002-V4C26
One may read the EC50 as the concentration giving half of the maximal effect. As for B2, the “EC50 (read off the curve)” value in assay [3] is approximately 10 pM. For the same molecule, the EC50 in [4] came out at 0.0217 nM; in assay [5] it was 0.0287 nM; in assay [6], 0.0307 nM; in assay [7], 0.0339 nM; in assay [8] it was 0.0527 nM; in assay [10], 0.0202 nM. Moreover, in assay [9], the “fold increase in affinity” value stood at 1.65 fold.

B3: anti-VISTA clone V4-C27 IgG1 (antibody, V domains shown)
VH: QVQLQESGPGLVKPSDTLSLTCTVSGYSITSDYTWNWIRQTPGKGLEWIGHITYSGSVSYNPSLRSRVTISRDTSKNQFSLKLSSVTAADTATYSCARALYYPWYFDVWGTGTTVTVSS
VL: EIVLTQSPATLSLSPGERATLSCRASSSVGYIHWYQQKPGQAPRPLIYATYNRATGIPARFSGSGSGTDNTLTISSLEPEDSAVYYCQQWSSYPPITFGGGTKLEVKR
As for B3, the “EC50 (read off the curve)” value in assay [11] is approximately 10 pM. Moreover, the binding result in [12], in assay [13], in [14], in [15], in [16] and in [17] was “no binding (tested: log -7.5 M)” each time.
